In EP4803150A2 (Lyvgen Biopharma Holdings Limited, dated 2026):

T1: CD3 (human)
T1 chain: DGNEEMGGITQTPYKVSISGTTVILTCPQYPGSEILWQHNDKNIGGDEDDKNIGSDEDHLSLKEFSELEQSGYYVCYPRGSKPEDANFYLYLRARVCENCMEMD

B1: Anti-CD3 Ly305 (antibody, V domains shown)
VH: EVQLVESGGGLVQPGGSLRLSCAASGFTFSTYAMNWVRQAPGKGLEWVGRIRSKYNNYATYYADSVKGRFTISRDDSKNSLYLQMNSLKTEDTAVYYCVRHGNFGNSYVSWFAYWGQGTLVTVSS
VL: QAVVTQEPSLTVSPGGTVTLTCRSSTGAVTTSNYANWVQQKPGQAPRGLIGGTNKRAPWTPARFSGSLLGGKAALTITGAQAEDEADYYCALWYSNLWVFGGGTKLTVL
notes: Parent mAb; also called CD3 mAb Ly305
B2: Ly1963 (multi-specific antibody)
chain 1: QVQLVQSGAEVKKPGASVKVSCKASGYTFTSYVMHWVRQKPGQGLEWIGYINPYNEGTESTDKFKGRATMTSDKSTSTVYMELSSLRSEDTAVYYCASIYYGYEGTYFGVWGQGTLVTVSSASTKGPSVFPLAPSSKSTSGGTAALGCLVKDYFPEPVTVSWNSGALTSGVHTFPAVLQSSGLYSLSSVVTVPSSSLGTQTYICNVNHKPSNTKVDKKVEPKSCGGGGSGGGGSGGGGSGGGGSEVQLVESGGGLVQPGGSLRLSCAASGFTFSTYAMNWVRQAPGKGLEWVGRIRSKYNNYATYYADSVKGRFTISRDDSKNSLYLQMNSLKTEDTAVYYCVRHGNFGNSYVSWFAYWGQGTLVTVSSGGGGSDKTHTCPPCPAPEAAGPSVFLFPPKPKDTLMISRTPEVTCVVVDVSHEDPEVKFNWYVDGVEVHNAKTKPREEQYNSTYRVVSVLTVLHQDWLNGKEYKCKVSNKALPAPIEKTISKAKGQPREPQVYTLPPSREEMTKNQVSLWCLVKGFYPSDIAVEWESNGQPENNYKTTPPVLDSDGSFFLYSKLTVDKSRWQQGNVFSCSVMHEALHNHYTQKSLSLSPGGGGGSGGGGSGGGGSGGGGSQVQLVQSGAEVKKPGASVKVSCKASGYTFAGFEMHWVRQAPGQGLEWMGAIDPKTGGTDYNQKFKDRVTMTRDTSISTAYMELSRLRSDDTAVYYCARDLGYFDVWGQGTLVTVSS
chain 2: QVQLVQSGAEVKKPGASVKVSCKASGYTFTSYVMHWVRQKPGQGLEWIGYINPYNEGTESTDKFKGRATMTSDKSTSTVYMELSSLRSEDTAVYYCASIYYGYEGTYFGVWGQGTLVTVSSASTKGPSVFPLAPSSKSTSGGTAALGCLVKDYFPEPVTVSWNSGALTSGVHTFPAVLQSSGLYSLSSVVTVPSSSLGTQTYICNVNHKPSNTKVDKKVEPKSCGGGGSGGGGSGGGGSGGGGSQAVVTQEPSLTVSPGGTVTLTCRSSTGAVTTSNYANWVQQKPGQAPRGLIGGTNKRAPWTPARFSGSLLGGKAALTITGAQAEDEADYYCALWYSNLWVFGGGTKLTVLGGGGSDKTHTCPPCPAPEAAGPSVFLFPPKPKDTLMISRTPEVTCVVVDVSHEDPEVKFNWYVDGVEVHNAKTKPREEQYNSTYRVVSVLTVLHQDWLNGKEYKCKVSNKALPAPIEKTISKAKGQPREPQVYTLPPSREEMTKNQVSLSCAVKGFYPSDIAVEWESNGQPENNYKTTPPVLDSDGSFFLVSKLTVDKSRWQQGNVFSCSVMHEALHNHYTQKSLSLSPGGGGGSGGGGSGGGGSGGGGSDIQMTQSPSSLSASVGDRVTITCRASQDIRSNLNWYQQKPGGAVKLLIYYTSRLHSGVPSRFSGSGSGTDYTLTISSLQPEDFATYFCQQSEKLPRTFGGGTKVEIR
chain 3: EIVLTQSPATLSLSPGERATLSCRASSSVSYMHWYQQKPGQAPRPWIYATSNLASGIPARFSGSRSGTDYTLTISSLEPEDFAVYYCQQWSSNTLTFGGGTKVEIKRTVAAPSVFIFPPSDEQLKSGTASVVCLLNNFYPREAKVQWKVDNALQSGNSQESVTEQDSKDSTYSLSSTLTLSKADYEKHKVYACEVTHQGLSSPVTKSFNRGEC
notes: Trispecific B7H3/CD3/CD137
B3: Ly1965 (bispecific antibody)
chain 1: QVQLVQSGAEVKKPGASVKVSCKASGYTFTSYVMHWVRQKPGQGLEWIGYINPYNEGTESTDKFKGRATMTSDKSTSTVYMELSSLRSEDTAVYYCASIYYGYEGTYFGVWGQGTLVTVSSASTKGPSVFPLAPSSKSTSGGTAALGCLVKDYFPEPVTVSWNSGALTSGVHTFPAVLQSSGLYSLSSVVTVPSSSLGTQTYICNVNHKPSNTKVDKKVEPKSCGGGGSGGGGSGGGGSGGGGSEVQLVESGGGLVQPGGSLRLSCAASGFTFSTYAMNWVRQAPGKGLEWVGRIRSKYNNYATYYADSVKGRFTISRDDSKNSLYLQMNSLKTEDTAVYYCVRHGNFGNSYVSWFAYWGQGTLVTVSSGGGGSDKTHTCPPCPAPEAAGPSVFLFPPKPKDTLMISRTPEVTCVVVDVSHEDPEVKFNWYVDGVEVHNAKTKPREEQYNSTYRVVSVLTVLHQDWLNGKEYKCKVSNKALPAPIEKTISKAKGQPREPQVYTLPPSREEMTKNQVSLWCLVKGFYPSDIAVEWESNGQPENNYKTTPPVLDSDGSFFLYSKLTVDKSRWQQGNVFSCSVMHEALHNHYTQKSLSLSPG
chain 2: QVQLVQSGAEVKKPGASVKVSCKASGYTFTSYVMHWVRQKPGQGLEWIGYINPYNEGTESTDKFKGRATMTSDKSTSTVYMELSSLRSEDTAVYYCASIYYGYEGTYFGVWGQGTLVTVSSASTKGPSVFPLAPSSKSTSGGTAALGCLVKDYFPEPVTVSWNSGALTSGVHTFPAVLQSSGLYSLSSVVTVPSSSLGTQTYICNVNHKPSNTKVDKKVEPKSCGGGGSGGGGSGGGGSGGGGSQAVVTQEPSLTVSPGGTVTLTCRSSTGAVTTSNYANWVQQKPGQAPRGLIGGTNKRAPWTPARFSGSLLGGKAALTITGAQAEDEADYYCALWYSNLWVFGGGTKLTVLGGGGSDKTHTCPPCPAPEAAGPSVFLFPPKPKDTLMISRTPEVTCVVVDVSHEDPEVKFNWYVDGVEVHNAKTKPREEQYNSTYRVVSVLTVLHQDWLNGKEYKCKVSNKALPAPIEKTISKAKGQPREPQVYTLPPSREEMTKNQVSLSCAVKGFYPSDIAVEWESNGQPENNYKTTPPVLDSDGSFFLVSKLTVDKSRWQQGNVFSCSVMHEALHNRFTQKSLSLSPG
chain 3: B2 chain 3
notes: B7H3/CD3
B4: Ly2128 (multi-specific antibody)
chain 1: QVQLVQSGAEVKKPGASVKVSCKASGYTFTSYVMHWVRQKPGQGLEWIGYINPYNEGTESTDKFKGRATMTSDKSTSTVYMELSSLRSEDTAVYYCASIYYGYEGTYFGVWGQGTLVTVSSASTKGPSVFPLAPSSKSTSGGTAALGCLVKDYFPEPVTVSWNSGALTSGVHTFPAVLQSSGLYSLSSVVTVPSSSLGTQTYICNVNHKPSNTKVDKKVEPKSCGGGGSGGGGSGGGGSGGGGSEVQLVESGGGLVQPGGSLRLSCAASGFTFSTYAMNWVRQAPGKGLEWVGRIRSKYNNYATYYADSVKGRFTISRDDSKNSLYLQMNSLKTEDTAVYYCVRHGNFGNSYVSWFAYWGQGTLVTVSSGGGGSDKTHTCPPCPAPEAAGPSVFLFPPKPKDTLMISRTPEVTCVVVDVSHEDPEVKFNWYVDGVEVHNAKTKPREEQYNSTYRVVSVLTVLHQDWLNGKEYKCKVSNKALPAPIEKTISKAKGQPREPQVYTLPPSREEMTKNQVSLWCLVKGFYPSDIAVEWESNGQPENNYKTTPPVLDSDGSFFLYSKLTVDKSRWQQGNVFSCSVMHEALHNHYTQKSLSLSPGGGGGSGGGGSGGGGSGGGGSQVQLVQSGAEVKKPGASVKVSCKASGYTFTSYYIHWVRQAPGQGLEWIGCIYPGNVNTNYNEKFKDRATLTVDTSISTAYMELSRLRSDDTAVYFCTRSHYGLDWNFDVWGQGTTVTVSS
chain 2: not shown
chain 3: B2 chain 3
notes: Tri-specific B7H3/CD3/CD28
B5: Ly2278 (bispecific antibody)
chain 1: QVQLQQSGAELVRPGSSVKISCKASGYAFSSYWMNWVKQRPGQGLEWIGQIWPGDGDTNYNGKFKGKATLTADESSSTAYMQLSSLASEDSAVYFCARRETTTVGRYYYAMDYWGQGTTVTVSSASTKGPSVFPLAPSSKSTSGGTAALGCLVKDYFPEPVTVSWNSGALTSGVHTFPAVLQSSGLYSLSSVVTVPSSSLGTQTYICNVNHKPSNTKVDKKVEPKSCGGGGSGGGGSGGGGSGGGGSEVQLVESGGGLVQPGGSLRLSCAASGFTFSTYAMNWVRQAPGKGLEWVGRIRSKYNNYATYYADSVKGRFTISRDDSKNSLYLQMNSLKTEDTAVYYCVRHGNFGNSYVSWFAYWGQGTLVTVSSGGGGSDKTHTCPPCPAPEAAGPSVFLFPPKPKDTLMISRTPEVTCVVVDVSHEDPEVKFNWYVDGVEVHNAKTKPREEQYNSTYRVVSVLTVLHQDWLNGKEYKCKVSNKALPAPIEKTISKAKGQPREPQVYTLPPSREEMTKNQVSLWCLVKGFYPSDIAVEWESNGQPENNYKTTPPVLDSDGSFFLYSKLTVDKSRWQQGNVFSCSVMHEALHNHYTQKSLSLSPG
chain 2: QVQLQQSGAELVRPGSSVKISCKASGYAFSSYWMNWVKQRPGQGLEWIGQIWPGDGDTNYNGKFKGKATLTADESSSTAYMQLSSLASEDSAVYFCARRETTTVGRYYYAMDYWGQGTTVTVSSASTKGPSVFPLAPSSKSTSGGTAALGCLVKDYFPEPVTVSWNSGALTSGVHTFPAVLQSSGLYSLSSVVTVPSSSLGTQTYICNVNHKPSNTKVDKKVEPKSCGGGGSGGGGSGGGGSGGGGSQAVVTQEPSLTVSPGGTVTLTCRSSTGAVTTSNYANWVQQKPGQAPRGLIGGTNKRAPWTPARFSGSLLGGKAALTITGAQAEDEADYYCALWYSNLWVFGGGTKLTVLGGGGSDKTHTCPPCPAPEAAGPSVFLFPPKPKDTLMISRTPEVTCVVVDVSHEDPEVKFNWYVDGVEVHNAKTKPREEQYNSTYRVVSVLTVLHQDWLNGKEYKCKVSNKALPAPIEKTISKAKGQPREPQVYTLPPSREEMTKNQVSLSCAVKGFYPSDIAVEWESNGQPENNYKTTPPVLDSDGSFFLVSKLTVDKSRWQQGNVFSCSVMHEALHNRFTQKSLSLSPG
chain 3: not shown
notes: CD19/CD3

Biological target: T1, CD3
Assay: CD3 binding as in Example 2 (ELISA or FCM)

Binder | EC50 [µg/mL]
B1 | 0.03
B2 | 0.74
B3 | 0.419
B4 | 1.08
B5 | 1.46
